This note sets out measurements from US20030134774A1, “Methods for inhibiting cardiac disorders” (priority 2001, published 2003).

Holding throughout (type): cell-based, rat
One series has as its system cardiomyocytes. Kind of series: Cardiomyocyte growth: sarcomeric organization and cell size. As to conditions: rPMT 400 ng/ml or NE 10 μM, 48 hr, serum-free. How it is done:
rPMT mimics the effect of norepinephrine to promote cardiomyocyte hypertrophy. Cardiomyocytes were cultured in serum-free medium without or with rPMT (400 ng/ml) or norepinephrine (NE, 10 μM) for 48 hr. Cardiomyocytes were fixed, permeabilized, and stained with monoclonal anti-α-actinin sarcomeric (Panel A, magnification×100) or subjected to Northern blot analysis for measurements of steady-state ANF mRNA expression (Panel B). Effects of rPMT (black bars) and NE (gray bars) vs. vehicle (white bars) on sarcomeric organization (Panel C), cell size (Panel D), and protein synthesis (Panel E) are illustrated (n=3 for each).
Cardiomyocyte growth was assessed by measuring cell surface area by digitized image analysis. For each experimental point, 7-10 frames/dish were recorded at 40× magnification with a video camera attached to a Nikon microscope which was calibrated with a micrometer.
Cardiomyocytes were grown on slides precoated with fibronectin. After treatment, cells were fixed with cold methanol and permeabilized with 0.1% Triton X-100 and 0.2% BSA. Cells were incubated with α-actinin monoclonal antibody overnight at 4° C. followed by anti-mouse IgG-Cy3-labeled antibody for 30 min at room temperature. Fluorescence microscopy images were obtained at 100× magnification.

For a further series, the system named is AKT. Briefly: Phospho-AKT and total AKT Western blot in cardiomyocytes. The method, then:
rPMT decreases basal AKT phosphorylation and prevents its phosphorylation by EGF. Neonatal rat cardiomyocytes were treated with rPMT (400 ng/ml) for 24 hr (Panel A), 48 hr (Panel B) or with EGF (50 ng/ml) for 5 min. Cell lysates were subjected to SDS-PAGE followed by Western blotting with antibodies that recognize the phosphorylated form or total AKT. Data are from representative gels, with similar results obtained in 3 separate experiments.
Panel A: Cells were treated with norepinephrine (NE, 10 μM) or PMA (100 nM) for 5 min without or with GF109203 (5 μM).
Panel B: Cells were treated with rPMT (400 ng/ml), NE (10 μM) or PMA (100 nM) for 24 hr without or with Go6983 (5 μM). […] Cell lysates were subjected to SDS-PAGE followed by Western blotting using a specific anti-phospho-AKT antibody. Data are from representative gels, with similar results obtained in 3 separate culture preparations.
(§1) Specific immunoreactivity for individual PKC isoforms was quantified according to methods described previously. For assays of MAPKs and AKT, cells were exposed to test agents as indicated in individual experimental protocols, washed three times with ice-cold calcium/magnesium-free Dulbecco's PBS (pH 7.1), scraped into ice-cold extraction buffer [20 mM β-glycerophosphate pH 7.5, 20 mM sodium fluoride, 2 mM EDTA, 0.2 mM sodium vanadate, 10 μg/ml aprotinin, 25 μg/ml leupeptin, 50 μg/ml PMSF, and 0.3% (v/v) β-mercaptoethanol], lysed by sonication, and centrifuged at 10,000 g for 10 min at 4° C. The supernatant was diluted in SDS-PAGE sample buffer, boiled for 5 min, and stored at −70° C. Western blot analysis was performed with antibodies that are selective for the phosphorylated (activated) forms of ERK1/2, p38-MAPK, JNK, AKT, and pan-PKC according to manufacturer's instructions. For each panel in each Figure, the results are from a single gel exposed for a uniform duration. Bands were detected by enhanced chemiluminescence and blots were quantified by laser scanning densitometry.
On the technique in general: A western blot detects proteins with antibodies after separation by electrophoresis.

The test system of another series is p38-MAPK. Kind of series: Phospho-p38 MAP kinase Western blot in cardiomyocytes. How it is done:
(§2) rPMT promotes the activation of ERK1/2, JNK and p38-MAPK cascades. Incubations were for 24 hr in the presence of the indicated concentrations of rPMT. PMA (100 nM, 5 min) and sorbitol ([…], 5 min) were included as positive controls. Cell lysates were subjected to SDS-PAGE followed by Western blotting as described in Methods below. Phosphorylated forms of ERK1/2 (A), p38 MAP kinase (B) or JNK (C) were detected by specific anti-phospho-ERK1/2, -p38 MAP kinase or -JNK antibodies, respectively. Blots were stripped and subjected to immunoblot analysis with total ERK1/2 or p38 MAP kinase to normalize for minor variations in protein loading (Panels A and B). Top: representative autoradiograms (with each lane from a single gel exposed for the same duration). Bottom: quantification of each series of experiments (n=3).
as §1

Another series concerns JNK. Briefly: Phospho-JNK Western blot in cardiomyocytes. How it is done: as §2, §1
For another series, the system named is PLC. Briefly: Inositol phosphate production (PLC activation) in cardiomyocyte cultures. How it is done: rPMT activates PLC. Cardiomyocyte cultures were incubated in media containing 3 μCi/ml [^3H] myoinositol for 96 hr, with 400 ng/ml rPMT for the indicated intervals at the end of this interval (Panel A) or the indicated concentration of rPMT included in the culture medium during the final 24 hr of culture (Panel B). This was followed by 30 min in the presence of 10 mM LiCl to inhibit the hydrolysis of inositol phosphate metabolites. Results are expressed as cpm over basal (mean±SEM; n=3) from a single experiment, and are representative of results obtained in 3 separate culture preparations.
Cardiomyocytes grown in six-well plates were labeled with 3 μCi/ml [^3H]myoinositol for 96 hr. Treatment with rPMT was during the final 24 hr of this interval. Cells were washed to remove unincorporated radioisotope and then incubated for an additional 20 min with HEPES-buffered saline containing 10 mM LiCl. Cells were lysed with 1.05 mls of chloroform/methanol/6M HCl (500:1000:3) and harvested, and lipids were extracted for 30 min at room temperature. 1.05 mls of chloroform/water (1:2) were added, and the mixture was vortexed and centrifuged at 2000 g for 5 min to separate the phases. The aqueous phase was transferred to Dowex anion-exchange columns, and inositol phosphates were eluted sequentially according to standard methods as described previously (13).

In the next series the test system is ERK1/2. Kind of series: Phospho-ERK1/2 Western blot in cardiomyocytes. How it is done:
as §2
rPMT transactivation of the EGF receptor in cardiac fibroblasts, but not cardiomyocytes. Neonatal rat cardiomyocytes (Panel A) and cardiac fibroblasts (Panel B) were treated with rPMT (400 ng/ml) for 24 hr or EGF (50 ng/ml) for 5 min without or with AG1478 (2 μM, starting 30 min prior to stimulation). Cell lysates were subjected to SDS-PAGE followed by Western blotting with the anti-phospho-ERK1/2 antibody. Data are from a representative gel, with similar results obtained in 3 separate experiments.
as §1

Where [1] appears, read: 24 hr, indicated concentrations.
Setting [2] is: increased progressively for 24 hr.
Setting [3] is: rPMT 24 hr, sorbitol 5 min positive control.

B1: rPMT: recombinant Pasteurella multocida toxin, a Gαq agonist used as pharmacological probe (protein, UniProt P17452 1-1285, looked up)
Dermonecrotic toxin: MKTKHFFNSDFTVKGKSADEIFRRLCTDHPDKQLNNVKWKEVFINRFGQMMLDTPNPRKIVEKIINEGLEKQGLKNIDPETTYFNIFSSSDSSDGNVFHYNSLSESYRVTDACLMNIFVERYFDDWDLLNSLASNGIYSVGKEGAYYPDHDYGPEYNPVWGPNEQIYHSRVIADILYARSVWDEFKKYFMEYWQKYAQLYTEMLSDTFLAMAIQQYTRQTLTDEGFLMVCNTYYGNKEEVQITLLDIYGYPSTDIICIEQKGLPTPKVILYIPGGTQPFVEFLNTDDLKQWIAWHLKDNKHMVAFRKHFSLKQRQEGETFTGIDKALQYIAEESPEWPANKYILYNPTHLETENLFNIMMKRTEQRMLEDSDVQIRSNSEATRDYALSLLETFISQLSAIDMLVPAVGIPINFALSATALGLSSDIVVNGDSYEKRKYGIGSLVQSALFTGINLIPVISETAEILSSFSRTEEDIPAFFTEEQALAQRFEIVEEELHSISPDDPPREITDENLHKIRLVRLNNENQPLVVLRRLGGNKFIRIEPITFQEIKGSLVSEVINPVTNKTYYVSNAKLLGGSPYSPFRIGLEGVWTPEVLKARASVIGKPIGESYKRILAKLQRIHNSNILDERQGLMHELMELIDLYEESQPSSERLNAFRELRTQLEKALYLPEMEALKKQILQIPNKGSGAARFLLRTAMNEMAGKTSESTADLIRFALQDTVISAPFRGYAGAIPEAIDFPVKYVIEDISVFDKIQTNYWELPAYESWNEGSNSALLPGLLRESQSKGMLSKCRIIENSLYIGHSYEEMFYSISPYSNQVGGPYELYPFTFFSMLQEVQGDLGFEQAFATRNFFNTLVSDRLSLMENTMLLTESFDYTPWDAIYGDINYDEQFAAMSINERIEKCMNTYRGVAFQNSSKSIDFFLNNLTTFIDNGLTEIAISDLPYDIVQQEISQFLQGSNEWKTLDAMLFNLDKGDINGAFRKLLQSAKDNNIKFRAIGHSDNSVPPFNNPYKSLYYKGNIIAEAIEKLDREGQKFVVFADSSLLNSTPGTGRPMPGLVQYLKIPATVVDSDGAWQFLPDVASSRVPIEVTELENWQVLTPPQGKILGLKQFKLTAGFPTEQSRLPLLENSVSEDLREELMQKIDAIKNDVKMNSLVCMEAGSCDSVSPKVAARLKDMGLEAGMGASITWWRREGGMEFSHQMHTTASFKFAGKEFAVDASHLQFVHDQLDTTILILPVDDWALEIAQRNRAINPFVEYVSKTGNMLALFMPPLFTKPRLTRAL
In the case of B1, in the series with cardiomyocytes, the “cell size (cellular enlargement)” value was “induce marked cellular enlargement” and the “myofibrillar (sarcomeric) organization” value is “promote myofibrillar organization”. Also, in the series on AKT, the “total AKT immunoreactivity, treated vs control cultures” value is on record as “similar”. For the same molecule, the “basal AKT phosphorylation after 24 hr treatment” value in the series with AKT (24 hr, relative to control cultures) was “reduced basal AKT phosphorylation”. Also, the “effect on AKT activation by EGF” value in the series on AKT (rPMT-treated cultures) was “blunted”. The “expression of total p38-MAPK protein” value with p38-MAPK is given as “does not significantly alter”. In addition, the “signaling through the p38-MAPK cascade (phosphorylation of terminal kinase)” value in the series with p38-MAPK (setting [1]) is “dose-dependent increases”. The “time at which p38-MAPK activation is detectable” value in the series on p38-MAPK (setting [2]) was determined as 1 h. Besides, in the series with p38-MAPK (setting [3]), the “magnitude of p38-MAPK activation” value is on record as “more modest”. The “expression of total JNK protein” value in the series on JNK was “does not significantly alter”. Moreover, the “signaling through the JNK cascade (phosphorylation of terminal kinase)” value in the series on JNK (setting [1]) is recorded as “dose-dependent increases”. Further, in the series with JNK (setting [2]), the “time at which JNK activation is detectable” value worked out at 1 h. In the series with JNK (setting [3]), the “magnitude of JNK activation” value was “more modest”. Further, the “toxin concentration giving maximal activation of inositol phosphate accumulation” value in the series with PLC (at 24 hr, batches vary) came out at 400 ng/mL. The inositol phosphate accumulation entry with PLC (cardiomyocytes) was “promotes inositol phosphate accumulation”. Further, in the series on PLC (cardiomyocytes, 400 ng/ml), the “time at which the inositol phosphate response is detectable” value was found to be 1 h and the “time at which the inositol phosphate response is maximal” value is 48 h. For the same molecule, the “expression of total ERK1/2 protein” value with ERK1/2 is reported as “does not significantly alter”. Moreover, the “signaling through the ERK1/2 cascade (phosphorylation of terminal kinase)” value in the series with ERK1/2 (setting [1]) is “dose-dependent increases”. Further, in the series with ERK1/2 (comparable to acute stimulation with PMA), the “magnitude of ERK1/2 activation” value is on record as “quite robust”. The “time at which ERK1/2 activation is detectable” value in the series with ERK1/2 (setting [2]) was 1 h.
